Experimental data: the supplement of paper PMC12783771
± gives the standard deviation of the averaged measurements.

B1: library; numbered along this chain (parent)
chain: MNIQIGELAKRTACPVVTIRFYEQEGLLPPPGRSRGNFRLYGEEHVERLQFIRHCRSLDMPLSDVRTLLSYRKRPDQDCGEVNMLLDEHIRQVESRIGALLELKHHLVELREACSGARPAQSCGILQGLSDCVCDTRGTTAHPSD

Tests used:
[1] = variants of: B1; assay: sfGFP reporter fluorescence (15 h) (µM FITC); higher = higher leak; conditions: library round: Round 0; ligand: none
In short: (§1)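 With 1 µM lead chloride, 30 µM zinc acetate or no metal present, 1 μL Echo-assembled reactions were incubated 15 hr at 30 °C. They contained BL21 Star (DE3) PANOx-SP extract, 30 μg/mL GamS, the pPbrR-sfGFP reporter plasmid and PCR-made linear PbrR templates Echo-normalized to 5 nM. Endpoint sfGFP fluorescence was read on a Synergy Neo2 at 485/528 nm against FITC standards in 50 mM sodium borate pH 8.5. Results are expressed as µM FITC.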

[2] = variants of: B1; assay: sfGFP reporter fluorescence (15 h) (µM FITC); higher = stronger transcriptional activation; conditions: library round: Round 0
In short: as §1

Row | Variant | sfGFP reporter fluorescence [1] | sfGFP reporter fluorescence ([2]; ligand: 1 µM Pb) | sfGFP reporter fluorescence ([2]; ligand: 30 µM Zn)
1 | R20K | 0.0623 ± 0.001 | 0.0625 ± 0.0018 | 0.064 ± 0.00078
2 | R20L | 0.06102 ± 0.00026 | 0.0597 ± 0.0026 | 0.0671 ± 0.0047
3 | R20M | 0.0607 ± 0.00078 | 0.06066 ± 0.00026 | 0.0605 ± 0.0021
4 | R20N | 0.06304 ± 0.00052 | 0.0674 ± 0.001 | 0.102 ± 0.0044
5 | R20P | 0.06285 ± 0.00026 | 0.05974 ± 0.00052 | 0.0673 ± 0.0013
6 | R20Q | 0.06212 ± 0.00026 | 0.0607 ± 0.00078 | 0.074 ± 0.0031
7 | R20S | 0.0634 ± 0.0021 | 0.061 ± 0.0023 | 0.063
8 | R20T | 0.0625 ± 0.0018 | 0.0612 ± 0.0021 | 0.06102 ± 0.00026
9 | R20V | 0.0623 ± 0.00052 | 0.0618 ± 0.0023 | 0.0627 ± 0.0026
10 | R20W | 0.0625 ± 0.0018 | 0.06157 ± 0.00052 | 0.063 ± 0.0015
11 | R20Y | 0.06249 ± 0.00026 | 0.06377 ± 0.00052 | 0.124 ± 0.0018
12 | F21A | 0.059 | 0.0541 ± 0.0013 | 0.0673 ± 0.0013
13 | F21C | 0.0599 ± 0.0029 | 0.0597 | 0.0583 ± 0.001
14 | F21D | 0.0616 ± 0.0015 | 0.0614 ± 0.0013 | 0.0599 ± 0.00078
15 | F21E | 0.0596 ± 0.00078 | 0.06175 ± 0.00026 | 0.0608 ± 0.0015
16 | F21G | 0.059 | 0.0577 ± 0.0023 | 0.0588 ± 0.00078
17 | F21H | 0.0596 ± 0.0018 | 0.0629 ± 0.0023 | 0.276 ± 0.0091
18 | F21I | 0.0597 | 0.0575 ± 0.0031 | 0.0607 ± 0.0018
19 | F21K | 0.0607 ± 0.0013 | 0.06157 ± 0.00052 | 0.0641
20 | F21L | 0.0612 ± 0.001 | 0.0581 ± 0.0013 | 0.0696 ± 0.001
21 | F21M | 0.0599 ± 0.0013 | 0.0619 ± 0.0021 | 0.09 ± 0.0086
22 | F21N | 0.0605 ± 0.0015 | 0.0605 ± 0.0021 | 0.06267 ± 0.00052

Row | Variant | sfGFP reporter fluorescence [1] | sfGFP reporter fluorescence ([2]; ligand: 1 µM Pb) | sfGFP reporter fluorescence ([2]; ligand: 30 µM Zn)
23 | F21P | 0.0619 | 0.0603 ± 0.0018 | 0.0629 ± 0.0018
24 | F21Q | 0.0605 | 0.05827 ± 0.00052 | 0.0625 ± 0.00078
25 | F21R | 0.0645 | 0.06212 ± 0.00026 | 0.0685 ± 0.0021
26 | F21S | 0.06341 ± 0.00052 | 0.0608 ± 0.001 | 0.06304 ± 0.00052
27 | F21T | 0.0601 ± 0.0015 | 0.06121 ± 0.00052 | 0.06066 ± 0.00026
28 | F21V | 0.0625 ± 0.00078 | 0.0608 | 0.0669 ± 0.00078
29 | F21W | 0.0702 ± 0.0013 | 0.124 ± 0.0031 | 0.945 ± 0.029
30 | F21Y | 0.06102 ± 0.00026 | 0.0755 ± 0.0015 | 0.819 ± 0.015
31 | Y22A | 0.06029 ± 0.00026 | 0.0557 ± 0.0021 | 0.0634 ± 0.001
32 | Y22C | 0.0614 ± 0.0044 | 0.0623 ± 0.00052 | 0.05919 ± 0.00026
33 | Y22D | 0.06066 ± 0.00026 | 0.0618 ± 0.0018 | 0.06011 ± 0.00052
34 | Y22E | 0.06157 ± 0.00052 | 0.0621 ± 0.0013 | 0.06011 ± 0.00052
35 | Y22F | 0.0629 ± 0.0029 | 0.0662 ± 0.00078 | 0.173 ± 0.0039
36 | Y22G | 0.0594 ± 0.0031 | 0.05846 ± 0.00026 | 0.0605 ± 0.0015
37 | Y22H | 0.063 ± 0.0015 | 0.06249 ± 0.00026 | 0.0651 ± 0.0018
38 | Y22I | 0.0605 ± 0.0015 | 0.0583 ± 0.0015 | 0.0564 ± 0.0036
39 | Y22K | 0.0625 ± 0.0018 | 0.0627 ± 0.001 | 0.0614 ± 0.0029
40 | Y22L | 0.0614 ± 0.00078 | 0.0597 ± 0.0015 | 0.07183 ± 0.00052
41 | Y22M | 0.0638 ± 0.001 | 0.0612 ± 0.0031 | 0.064 ± 0.0013
42 | Y22N | 0.0619 ± 0.0031 | 0.0607 ± 0.0029 | 0.0614 ± 0.0023
43 | Y22P | 0.0618 ± 0.0018 | 0.06066 ± 0.00026 | 0.0621 ± 0.0023
44 | Y22Q | 0.0627 ± 0.001 | 0.0612 | 0.0607 ± 0.0023

Row | Variant | sfGFP reporter fluorescence [1] | sfGFP reporter fluorescence ([2]; ligand: 1 µM Pb) | sfGFP reporter fluorescence ([2]; ligand: 30 µM Zn)
45 | Y22R | 0.0678 ± 0.00052 | 0.06579 ± 0.00026 | 0.0689 ± 0.0031
46 | Y22S | 0.0636 ± 0.0013 | 0.06084 ± 0.00052 | 0.0619 ± 0.001
47 | Y22T | 0.05937 ± 0.00052 | 0.06084 ± 0.00052 | 0.06121 ± 0.00052
48 | Y22V | 0.06359 ± 0.00026 | 0.0614 ± 0.00078 | 0.0641 ± 0.0021
49 | Y22W | 0.0658 ± 0.0029 | 0.142 ± 0.00026 | 2.1 ± 0.13
50 | E23A | 0.0608 ± 0.0015 | 0.05827 ± 0.00052 | 0.104 ± 0.0026
51 | Q24A | 0.0559 ± 0.0029 | 0.05827 ± 0.00052 | 0.534 ± 0.052
52 | E25A | 0.0634 ± 0.0036 | 0.0823 ± 0.0029 | 0.611 ± 0.041
53 | G26A | 0.06304 ± 0.00052 | 0.0724 ± 0.0023 | 0.512 ± 0.033
54 | L27A | 0.0632 ± 0.00078 | 0.05827 ± 0.00052 | 0.0733
55 | L27C | 0.06285 ± 0.00026 | 0.0641 ± 0.001 | 0.142 ± 0.0023
56 | L27D | 0.0627 ± 0.0015 | 0.0603 ± 0.0018 | 0.0574 ± 0.0018
57 | L27E | 0.0603 ± 0.0013 | 0.0616 ± 0.0015 | 0.0577 ± 0.00078
58 | L27F | 0.0673 ± 0.0023 | 0.104 ± 0.0029 | 0.493 ± 0.035
59 | L27G | 0.0608 ± 0.001 | 0.0597 ± 0.0015 | 0.0649 ± 0.0036
60 | L27H | 0.0623 ± 0.0015 | 0.06322 ± 0.00026 | 0.0762 ± 0.001
61 | L27I | 0.0596 ± 0.00078 | 0.0803 ± 0.0015 | 0.555 ± 0.033
62 | L27K | 0.064 ± 0.0013 | 0.06084 ± 0.00052 | 0.0614 ± 0.0018
63 | L27M | 0.0643 ± 0.0018 | 0.0971 ± 0.0036 | 0.743 ± 0.04
64 | L27N | 0.06322 ± 0.00026 | 0.0616 ± 0.0031 | 0.0601
65 | L27P | 0.0607 ± 0.0034 | 0.0612 ± 0.001 | 0.0656 ± 0.0026
66 | L27Q | 0.06432 ± 0.00026 | 0.0618 ± 0.0013 | 0.06285 ± 0.00026

Row | Variant | sfGFP reporter fluorescence [1] | sfGFP reporter fluorescence ([2]; ligand: 1 µM Pb) | sfGFP reporter fluorescence ([2]; ligand: 30 µM Zn)
67 | L27R | 0.0656 ± 0.0026 | 0.0658 ± 0.0013 | 0.0665 ± 0.00078
68 | L27S | 0.0623 ± 0.00052 | 0.0621 ± 0.00078 | 0.0647 ± 0.0029
69 | L27T | 0.0621 ± 0.0013 | 0.06029 ± 0.00026 | 0.0594 ± 0.0026
70 | L27V | 0.0625 ± 0.00078 | 0.0717 ± 0.00078 | 0.349 ± 0.0044
71 | L27W | 0.0616 ± 0.0036 | 0.0623 | 0.0638
72 | L27Y | 0.066 | 0.0792 ± 0.0021 | 0.254 ± 0.011
73 | L28A | 0.06322 ± 0.00026 | 0.0603 ± 0.00078 | 0.0695 ± 0.0013
74 | L28C | 0.06304 ± 0.00052 | 0.06487 ± 0.00052 | 0.14 ± 0.0052
75 | L28D | 0.06194 ± 0.00052 | 0.0632 ± 0.00078 | 0.06359 ± 0.00026
76 | L28E | 0.06304 ± 0.00052 | 0.0649 ± 0.0015 | 0.0656
77 | L28F | 0.0603 ± 0.00078 | 0.0784 ± 0.0015 | 0.599 ± 0.018
78 | L28G | 0.05882 ± 0.00026 | 0.0581 ± 0.00078 | 0.059 ± 0.001
79 | L28H | 0.06249 ± 0.00026 | 0.0625 ± 0.0013 | 0.0563 ± 0.0034
80 | L28I | 0.0588 ± 0.00078 | 0.0841 ± 0.0013 | 0.908 ± 0.066
81 | L28K | 0.06304 ± 0.00052 | 0.0625 ± 0.0018 | 0.05809 ± 0.00026
82 | L28M | 0.0616 | 0.077 ± 0.0015 | 0.618 ± 0.023
83 | L28N | 0.06285 ± 0.00026 | 0.0592 ± 0.00078 | 0.0605 ± 0.0026
84 | L28P | 0.06102 ± 0.00026 | 0.06047 ± 0.00052 | 0.0619 ± 0.001
85 | L28Q | 0.0638 | 0.0619 ± 0.001 | 0.05901 ± 0.00052
86 | L28R | 0.0629 ± 0.0013 | 0.063 ± 0.0026 | 0.0588 ± 0.0029
87 | L28S | 0.0627 ± 0.0015 | 0.0632 ± 0.0023 | 0.0715
88 | L28T | 0.0647 ± 0.0013 | 0.0691 ± 0.0013 | 0.166 ± 0.031
